Test results reported in patent publication US20240343831A1 (Regeneron, published 2024).

Experiments:
[1] = molecular target: Macaca fascicularis TMPRSS2-MMH (Macaca fascicularis); assay: SPR Biacore T200, mAb captured by anti-human Fc, 25 C, HBS-P pH 7.4
[2] = molecular target: Macaca fascicularis TMPRSS2-MMH (Macaca fascicularis); assay: SPR Biacore T200, mAb captured by anti-human Fc, 37 C, dissociation in PBS-T pH 7.4
[3] = molecular target: Macaca fascicularis TMPRSS2-MMH (Macaca fascicularis); assay: SPR Biacore T200, mAb captured by anti-human Fc, 37 C, HBS-P pH 7.4
[4] = molecular target: Macaca fascicularis TMPRSS2-MMH (Macaca fascicularis); assay: SPR Biacore T200, mAb captured by anti-human Fc, 37 C, dissociation in PBS-T pH 6.0
[5] = molecular target: T1, ectodomain of human TMPRSS2-myc-myc-His (human, UniProt O15393 106-492); assay: SPR Biacore T200, mAb captured by anti-human Fc, 37 C, dissociation in PBS-T pH 7.4
T1 construct: extracellular domain; also called hTMPRSS2-MMH; human TMPRSS2-MMH
T1 sequence (O15393 106-492): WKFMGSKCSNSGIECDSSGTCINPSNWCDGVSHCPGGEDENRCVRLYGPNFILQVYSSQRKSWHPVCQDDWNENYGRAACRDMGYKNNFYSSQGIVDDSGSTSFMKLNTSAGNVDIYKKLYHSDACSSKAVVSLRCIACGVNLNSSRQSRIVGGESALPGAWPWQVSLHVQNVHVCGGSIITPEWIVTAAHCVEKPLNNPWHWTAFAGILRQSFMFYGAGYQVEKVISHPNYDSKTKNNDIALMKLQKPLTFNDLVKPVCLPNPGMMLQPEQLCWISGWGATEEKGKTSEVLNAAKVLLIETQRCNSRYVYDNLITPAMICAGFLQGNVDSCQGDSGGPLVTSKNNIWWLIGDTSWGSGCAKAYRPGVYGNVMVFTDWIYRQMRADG
Description: (§1) Dissociation rate constant (kd) for TMPRSS2 binding to purified anti-TMPRSS2 monoclonal antibody was determined using a real-time surface plasmon resonance based Biacore T200 biosensor platform. […] The CM5 Biacore sensor surface derivatized by amine coupling with an anti-human Fc specific mouse mAb was used to capture different anti-TMPRSS2 mAbs. All the TMPRSS2 reagents were expressed with a C-terminal myc-myc-hexahistidine tag (subsequently referred to as TMPRSS2-MMH).
(§2) Dissociation rate constants (kd) in two running buffers were determined by fitting the real-time binding sensorgrams to a 1:1 binding model using Scrubber 2.0c curve-fitting software.

[6] = molecular target: T1, ectodomain of human TMPRSS2-myc-myc-His; assay: SPR Biacore T200, mAb captured by anti-human Fc, 37 C, HBS-P pH 7.4
Description: (§3) The equilibrium dissociation constant (KD) for TMPRSS2 binding to different TMPRSS2 monoclonal antibodies (mAbs) was determined with a real-time surface plasmon resonance biosensor using a Biacore T200 instrument. All binding studies were performed in 10 mM HEPES, 150 mM NaCl, and 0.05% v/v Surfactant Tween-20, pH 7.4 (HBS-P) running buffer at 25° C. and 37° C. […] At the end of each cycle, the TMPRSS2 mAb captured surface was regenerated using a 12 sec injection of 20 mM phosphoric acid.
(§4) The association rate (kₐ) and dissociation rate (kd) were determined by fitting the real-time binding sensorgrams to a 1:1 binding model with mass transport limitation using Scrubber 2.0c curve-fitting software. Binding dissociation equilibrium constant (KD) and dissociative half-life (t½) were calculated from the kinetic rates as:

[7] = molecular target: Macaca fascicularis TMPRSS2-MMH (Macaca fascicularis); assay: SPR Biacore T200, 37 C, t½ at pH 7.4 over t½ at pH 6.0
[8] = molecular target: T1, ectodomain of human TMPRSS2-myc-myc-His; assay: SPR Biacore T200, mAb captured by anti-human Fc, 25 C, HBS-P pH 7.4
Description: as §3, §4

[9] = molecular target: T1, ectodomain of human TMPRSS2-myc-myc-His; assay: SPR Biacore T200, 37 C, t½ at pH 7.4 over t½ at pH 6.0
Description: as §1, §2

[10] = molecular target: T1, ectodomain of human TMPRSS2-myc-myc-His; assay: SPR Biacore T200, mAb captured by anti-human Fc, 37 C, dissociation in PBS-T pH 6.0
Description: as §1, §2

[11] = molecular target: T2, mouse TMPRSS2-MMH (mouse, UniProt Q9JIQ8 105-490); assay: SPR Biacore T200, mAb captured by anti-human Fc, 37 C, HBS-P pH 7.4
T2 construct: extracellular domain; also called mTMPRSS2-MMH
T2 sequence (Q9JIQ8 105-490): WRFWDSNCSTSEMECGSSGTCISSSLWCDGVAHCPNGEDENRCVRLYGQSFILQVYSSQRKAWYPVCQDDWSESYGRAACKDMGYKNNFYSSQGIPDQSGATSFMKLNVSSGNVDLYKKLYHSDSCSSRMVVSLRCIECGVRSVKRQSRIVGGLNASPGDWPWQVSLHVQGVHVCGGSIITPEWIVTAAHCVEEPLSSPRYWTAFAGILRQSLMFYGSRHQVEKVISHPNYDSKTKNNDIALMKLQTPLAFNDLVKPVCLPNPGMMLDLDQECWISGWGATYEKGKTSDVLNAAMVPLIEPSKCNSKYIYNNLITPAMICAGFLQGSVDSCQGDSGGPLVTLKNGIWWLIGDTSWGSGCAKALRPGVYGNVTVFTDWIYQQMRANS
Description: as §3, §4

[12] = molecular target: T2, mouse TMPRSS2-MMH; assay: SPR Biacore T200, 37 C, t½ at pH 7.4 over t½ at pH 6.0
Description: as §1, §2

[13] = molecular target: T2, mouse TMPRSS2-MMH; assay: SPR Biacore T200, mAb captured by anti-human Fc, 37 C, dissociation in PBS-T pH 6.0
Description: as §1, §2

[14] = molecular target: T2, mouse TMPRSS2-MMH; assay: SPR Biacore T200, mAb captured by anti-human Fc, 37 C, dissociation in PBS-T pH 7.4
Description: as §1, §2

[15] = molecular target: T2, mouse TMPRSS2-MMH; assay: SPR Biacore T200, mAb captured by anti-human Fc, 25 C, HBS-P pH 7.4
Description: as §3, §4

B1: mAb8021 (antibody, human IgG4 S228P, kappa, V domains shown)
VH: QVQLVQSGAEVKKPGASVRVSCKASGYTFTNYGITWVRQAPGQGLEWMGGISVYNGNTEYAEKFQGRVSMTTDTSTTTAYLELRSLKSDDTAVYFCARGQLDYFDPWGQGTLVTVSS
VL: EIVMTQSPATLSVSPGERATLSCRASQSVRSNLAWYQQKPGQAPSLLIYGASTRATGIPARFSGSGSGTEFTLTISSLQSEDFAVYFCLQYNNWWTFGQGTKVEIKR
notes: also called anti-TMPRSS2 mAb
- 100 nM mfTMPRSS2-MMH Bound (RU) [1]: 63.4 RU
- Kd [1]: 0.0252 nM
- koff [1]: 0.000113 s⁻¹
- kon [1]: 4.48e+06 M⁻¹ s⁻¹
- t½ [1]: 102 min
- 100 nm Ag Bound (RU) [2]: 71 RU
- koff [2]: 0.000127 s⁻¹
- t½ [2]: 91 min
- 100 nM mfMPRSS2-MMH Bound (RU) [3]: 36.7 RU
- Kd [3]: 0.0141 nM
- koff [3]: 0.000109 s⁻¹
- kon [3]: 7.71e+06 M⁻¹ s⁻¹
- t½ [3]: 106 min
- 100 nm Ag Bound (RU) [4]: 70 RU
- koff [4]: 0.000111 s⁻¹
- t½ [4]: 104 min
- koff [5]: 0.000192 s⁻¹
- t½ [5]: 60 min
- Kd [6]: 0.0627 nM
- koff [6]: 0.000261 s⁻¹
- kon [6]: 4.17e+06 M⁻¹ s⁻¹
- t½ [6]: 44.2 min
- t½ Ratio (pH 7.4/pH 6.0) [7]: 0.9
- Kd [8]: 0.0299 nM
- koff [8]: 9.19e-05 s⁻¹
- kon [8]: 3.08e+06 M⁻¹ s⁻¹
- t½ [8]: 126 min
- t½ Ratio (pH 7.4/pH 6.0) [9]: 0.7
- koff [10]: 0.000129 s⁻¹
- t½ [10]: 90 min

B2: mAb8029 (antibody, human IgG4 S228P, kappa, V domains shown)
VH: QLQLQESGPGLVKPSETLSLTCTVSGGSINSNSYYWGWIRQPPGKGLEWIGSIYYDRNTYYTPSLKSRVTISVDTSKNQFSLKLTSVTAADTAVYYCAREQVPGYYGMDVWGQGTTVTVSS
VL: DIQLTQSPSFLSASVGDRVTITCWASQGISRYLAWYQQKPGKTPKLLIYAASTLQSGVPSRFSGTGSGTDFTLTISNLQPEDFATYYCQQFDSYPWTFGQGTKVEIKR
notes: also called anti-TMPRSS2 mAb
- Kd [11]: 9.75 nM
- koff [11]: 0.00209 s⁻¹
- kon [11]: 214000 M⁻¹ s⁻¹
- t½ [11]: 5.5 min
- t½ Ratio (pH 7.4/pH 6.0) [12]: 1
- koff [13]: 0.00257 s⁻¹
- t½ [13]: 4 min
- koff [14]: 0.00246 s⁻¹
- t½ [14]: 5 min
- 100 nM mfTMPRSS2-MMH Bound (RU) [1]: 66.7 RU
- Kd [1]: 0.0609 nM
- koff [1]: 0.000196 s⁻¹
- kon [1]: 3.2e+06 M⁻¹ s⁻¹
- t½ [1]: 59.1 min
- 100 nm Ag Bound (RU) [2]: 90 RU
- koff [2]: 0.000408 s⁻¹
- t½ [2]: 28 min
- 100 nM mfMPRSS2-MMH Bound (RU) [3]: 35.3 RU
- Kd [3]: 0.0758 nM
- koff [3]: 0.000392 s⁻¹
- kon [3]: 5.17e+06 M⁻¹ s⁻¹
- t½ [3]: 29.5 min
- 100 nm Ag Bound (RU) [4]: 94 RU
- koff [4]: 0.000339 s⁻¹
- t½ [4]: 34 min
- koff [5]: 0.000624 s⁻¹
- t½ [5]: 19 min
- Kd [6]: 0.216 nM
- koff [6]: 0.000673 s⁻¹
- kon [6]: 3.12e+06 M⁻¹ s⁻¹
- t½ [6]: 17.2 min
- Kd [15]: 3.33 nM
- koff [15]: 0.000442 s⁻¹
- kon [15]: 133000 M⁻¹ s⁻¹
- t½ [15]: 26.2 min
- t½ Ratio (pH 7.4/pH 6.0) [7]: 0.8
- Kd [8]: 0.0592 nM
- koff [8]: 0.000129 s⁻¹
- kon [8]: 2.18e+06 M⁻¹ s⁻¹
- t½ [8]: 89.5 min
- t½ Ratio (pH 7.4/pH 6.0) [9]: 1
- koff [10]: 0.000615 s⁻¹
- t½ [10]: 19 min
